The text below walks through data of US20240207429A1 (PROFOUNDBIO US, published 2024).

The target in assay [1] is T1, Human FOLR1 Protein His Tag (ACRO-FO1-H52H1) (human, UniProt P15328 25-233).
T1 construct: not shown: His tag
In words: ELISA, supernatant diluted 1x. In general terms: In an ELISA, binding on a coated surface is turned into a signal by an enzyme label.

The target of assay [2] is T2, Cynomolgus/Rhesus macaque FOLR1 Protein, His Tag (ACRO, F01-C52H8) (cynomolgus, UniProt A0A2K5U044 25-233).
T2 construct: also called cynomolgus FOLR1 protein; not shown: His tag
T2 sequence (A0A2K5U044 entry or part of it): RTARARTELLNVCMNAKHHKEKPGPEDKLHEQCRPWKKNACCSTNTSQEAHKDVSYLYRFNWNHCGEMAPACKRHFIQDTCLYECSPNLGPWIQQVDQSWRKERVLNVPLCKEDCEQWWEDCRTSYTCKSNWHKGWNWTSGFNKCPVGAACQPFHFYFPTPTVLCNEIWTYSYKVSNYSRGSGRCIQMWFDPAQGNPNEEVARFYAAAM
In words: ELISA, supernatant diluted 1x.

The target in assay [3] is T1, Human FOLR1 Protein His Tag …. In words: ELISA, HEK293 supernatant on coated antigen.
For assay [4] the target is unchanged. In words: ELISA, supernatant diluted 5x.
For assay [5], the target named is T2, Cynomolgus/Rhesus macaque FOLR1 …. In words: ELISA, supernatant diluted 5x.
The target in assay [6] is T1, Human FOLR1 Protein His Tag …. The assay is described as follows: ELISA, supernatant diluted 25x.
Assay [7] concerns the target T2, Cynomolgus/Rhesus macaque FOLR1 …. The assay is described as follows: ELISA, supernatant diluted 25x.

T1 sequence (P15328 25-233 limits assumed): as the sequence (A0A2K5U044 entry or part of it) above, with T2I, R4W, K37R, P146A, Y171H counted along it

B1: F1 (antibody, V domains shown)
VH: EVQLLESGGGVVQPGRSLRLSCAASGFTFSSYGMHWVRQAPGKGLEWVAVISYDGSNKYYADSVKGRFTISRDNSKNTLYLQMNSLRAEDTAVYYCARPRAYYGAYGSSFDYWGQGTQVTVSS
VL: EIVMTQSPSSVSASVGDRVAITCRASQGISSWLAWYQQKPGKAPKLLIYAASSLQSGVPSRFSGSGSGTDFTLTISSLQPEDFATYYCQQSYSTPLTFGGGTKVDIK
notes: also called clone F1; anti-FOLR1 antibody F1
Consider B1, for which the OD450 in assay [1] amounted to 1.66; in assay [2], 1.38; in assay [3], 2.43; in assay [4], 1.45; in assay [5], 1.26; in assay [6], 1.18. This molecule also displayed an OD450 in assay [7] of 0.994.

B2: F40 (antibody, V domains shown)
VH: EVQLLESGGGVVQPGRSLRLSCAASGFTFSSYAMHWVRQAPGKGLEWVAVISYDGSNKYYADSVKGRFIISRDNSKNTVYLQMNSLRAEDTAVYYCARPTYVFTYTGSSFDYWGQGTQVTVSS
VL: DIQVTQSPSSLSASLGDTVSITCRASRGLTDSVAWYQQKPGQAPKLLIYAASTLQSGVPSRFGGSGSGSYFTLTITSLQPEDVATYYCQNYKSAPWTFGQGTKVEIK
notes: also called clone F40; anti-FOLR1 antibody F40
With B2, the OD450 in assay [1] was determined as 0.811; in assay [2], 1.35; in assay [3], 2.39; in assay [4], 0.382; in assay [5] it was 1.11; in assay [6] it was 0.163. This molecule also showed an OD450 in assay [7] of 0.924.

B3: F26 (antibody, V domains shown)
VH: EVQLLESGGGVVQRGRSLRLSCAASGFTFSSYGMHWVRQAPGKGLEWVAVISYDGSNKYYADSVKGRFTISRDNSKNTLYLPMNSLRAEDTAVYYCARPRAYYGAYGSSFDYWGQGTQVTVSS
VL: EIVMTQSPSSVSASVGDRVAITCRASQGISSWLAWYQQKPGKAPKLLIYAASSLQSGVPSRFSGSGSGTDFTLTISSLQPEDFATYYCQQSYSTPLTFGGGTKVDIK
notes: also called clone F26; anti-FOLR1 antibody F26
For the molecule B3, the OD450 in assay [1] amounted to 1.64; in assay [2] it was 1.24; in assay [3], 2.43; in assay [4] it was 1.51; in assay [5] it was 1.21; in assay [6], 1.48. The same molecule returned an OD450 in assay [7] of 1.02.

B4: F48 (antibody, V domains shown)
VH: EVQLLESGGGVVQPGRSLRLSCAASGFTFSSYGMHWVRQAPGKGLEWVAVISYDGSNKYYADSVKGRFTISRDNSKNTLYLHMNSLRAEDTAVYYCARPRAYYGAYGSSFDYWGQGTQVTVSS
VL: EIVMTQSPSSVSASVGDRVAITCRASQGISSWLAWYQQKPGKAPKLLIYAASSLQSGVPSRFSGSGSGTDFTLTISSLQPEDFATYYCQQSYSTPLTFGGGTKVDIK
notes: also called clone F48; anti-FOLR1 antibody F48
On to B4, for which the OD450 turned out to be 1.56 in assay [1]; 1.15 in assay [2]; 2.54 in assay [3]; 1.59 in assay [4]; 1.04 in assay [5]; 1.29 in assay [6]. The molecule further yielded an OD450 in assay [7] of 0.908.

B5: F131 (antibody, V domains shown)
VH: EVQLLESGGGVVQPGRSLRLSCAASGFTFSSYGMHWVRQAPGKGLEWVAVISYDGSNKYYADSVKGRFTISRANSKNTLYLQMNSLRAEDTAVYYCARPRAYYGAYGSSFDYWGQGTQVTVSS
VL: EIVMTQSPSSVSASVGDRVAITCRASQGISSWLAWYQQKPGKAPKLLIYAASSLQSGVPSRFSGSGSGTDFTLTISSLQPEDFATYYCQQSYSTPLTFGGGTKVDIK
notes: also called clone F131; F131 mAb
With B5, the OD450 is 1.61 in assay [1]; 1.2 in assay [2]; 2.35 in assay [3]; 1.52 in assay [4]; 1.27 in assay [5]; 1.38 in assay [6]. This molecule returned an OD450 in assay [7] of 1.09.

B6: F112 (antibody, V domains shown)
VH: EVQLLESGGGVVQPGRSLRLSCAASGFTFSSYGMHWVRQAPGKGLEWVAVISYDGSNKYYADSVKGRFTISRHNSKNTLYLQMNSLRAEDTAVYYCARPRAYYGAYGSSFDYWGQGTQVTVSS
VL: EIVMTQSPSSVSASVGDRVAITCRASQGISSWLAWYQQKPGKAPKLLIYAASSLQSGVPSRFSGSGSGTDFTLTISSLQPEDFATYYCQQSYSTPLTFGGGTKVDIK
notes: also called clone F112; anti-FOLR1 antibody F112
For the molecule B6, the OD450 in assay [1] was 1.56; in assay [2], 1.26; in assay [3], 2.35; in assay [4], 1.42; in assay [5], 1.21; in assay [6] it was 1.17. In addition, the OD450 in assay [7] amounted to 0.933.

B7: F8 (antibody, V domains shown)
VH: EVQLLESGGGVVQHGRSLRLSCAASGFTFSSYGMHWVRQAPGKGLEWVAVISYDGSNKYYADSVKGRFTISRDNSKNTLYLQMNSLRAEDTAVYYCARPRAYYGAYGSSFDYWGQGTQVTVSS
VL: EIVMTQSPSSVSASVGDRVAITCRASQGISSWLAWYQQKPGKAPKLLIYAASSLQSGVPSRFSGSGSGTDFTLTISSLQPEDFATYYCQQSYSTPLTFGGGTKVDIK
notes: also called clone F8; anti-FOLR1 antibody F8
Consider B7, for which the OD450 in assay [1] worked out at 1.67; in assay [2] it was 0.896; in assay [3], 2.45; in assay [4], 1.65; in assay [5], 1.28; in assay [6], 1.31. Also, the OD450 in assay [7] is 1.06.

B8: F138 (antibody, V domains shown)
VH: EVQLLESGGGVVQPGRSLRLSCAASGFTFSSYGMHWVRQAPGKGLEWVAVISYDGSNKYYADSVKGRFTISTHNSKNTLYLQMNSLRAEDTAVYYCARPRAYYGAYGSSFDYWGQGTQVTVSS
VL: EIVMTQSPSSVSASVGDRVAITCRASQGISSWLAWYQQKPGKAPKLLIYAASSLQSGVPSRFSGSGSGTDFTLTISSLQPEDFATYYCQQSYSTPLTFGGGTKVDIK
notes: also called clone F138; anti-FOLR1 antibody F138
Regarding B8, the OD450 is 1.64 in assay [1]; 1.14 in assay [2]; 2.41 in assay [3]; 1.69 in assay [4]; 1.14 in assay [5]; 0.827 in assay [6]. In addition, the OD450 in assay [7] was found to be 1.17.

B9: F100 (antibody, V domains shown)
VH: EVQLLESGGGVVQPGRSLRLSCAASGFTFSSYGMHWVRQAPGKGLEWVAVISYDGSNKYYADSVKGRFTISRPNSKNTLYLQMNSLRAEDTAVYYCARPRAYYGAYGSSFDYWGQGTQVTVSS
VL: EIVMTQSPSSVSASVGDRVAITCRASQGISSWLAWYQQKPGKAPKLLIYAASSLQSGVPSRFSGSGSGTDFTLTISSLQPEDFATYYCQQSYSTPLTFGGGTKVDIK
notes: also called clone F100; anti-FOLR1 antibody F100
As for B9, the OD450 in assay [1] was determined as 1.61; in assay [2], 1.16; in assay [3] it was 2.3; in assay [4] it was 1.53; in assay [5], 1.03; in assay [6], 1.18. This molecule displayed an OD450 in assay [7] of 0.875.

B10: F123 (antibody, V domains shown)
VH: EVQLLESGGGVVQPERSLRLSCAASGFTFSSYGMHWVRQAPGKGLEWVAVISYDGSNKYYADSVKGRFTISRANSKNTLYLQMNSLRAEDTAVYYCARPRAYYGAYGSSFDYWGQGTQVTVSS
VL: EIVMTQSPSSVSASVGDRVAITCRASQGISSWLAWYQQKPGKAPKLLIYAASSLQSGVPSRFSGSGSGTDFTLTISSLQPEDFATYYCQQSYSTPLTFGGGTKVDIK
notes: also called clone F123; anti-FOLR1 antibody F123
In the case of B10, the OD450 in assay [1] turned out to be 1.72; in assay [2], 1.36; in assay [3], 2.32; in assay [4], 1.47; in assay [5], 1.3; in assay [6] it was 1.33. Also, the OD450 in assay [7] came out at 1.07.
